{"source": "patent US20190381171A1", "about": "“CO-USE OF ANTI-BCMA ANTIBODY AND ANTIBODY-COUPLED T CELL RECEPTOR (ACTR) IN CANCER THERAPY AND B CELL DISORDERS” (UNUM THERAPEUTICS INC., priority 2017, published 2019)", "binders": {"B1": {"name": "humanized afucosylated (SEA) anti-BCMA antibody hSG16.17SEA (antibody, V domains shown)", "VH": "QVQLVQSGAEVKKPGASVKLSCKASGYTFTDYYIHWVRQAPGQGLEWIGYINPNSGYTNYAQKFQGRATMTADKSINTAYVELSRLRSDDTAVYFCTRYMWERVTGFFDFWGQGTMVTVSS", "VL": "DIQMTQSPSSVSASVGDRVTITCLASEDISDDLAWYQQKPGKAPKVLVYTTSSLQSGVPSRFSGSGSGTDFTLTISSLQPEDFATYFCQQTYKFPPTFGGGTKVEIKR"}}, "assay_in_all_cases": "cell-based or functional assay", "key": {"[1]": {"biological_target": "ACTR variant SEQ ID NO: 60", "sequence (chain, as listed by the source mutant limits assumed)": "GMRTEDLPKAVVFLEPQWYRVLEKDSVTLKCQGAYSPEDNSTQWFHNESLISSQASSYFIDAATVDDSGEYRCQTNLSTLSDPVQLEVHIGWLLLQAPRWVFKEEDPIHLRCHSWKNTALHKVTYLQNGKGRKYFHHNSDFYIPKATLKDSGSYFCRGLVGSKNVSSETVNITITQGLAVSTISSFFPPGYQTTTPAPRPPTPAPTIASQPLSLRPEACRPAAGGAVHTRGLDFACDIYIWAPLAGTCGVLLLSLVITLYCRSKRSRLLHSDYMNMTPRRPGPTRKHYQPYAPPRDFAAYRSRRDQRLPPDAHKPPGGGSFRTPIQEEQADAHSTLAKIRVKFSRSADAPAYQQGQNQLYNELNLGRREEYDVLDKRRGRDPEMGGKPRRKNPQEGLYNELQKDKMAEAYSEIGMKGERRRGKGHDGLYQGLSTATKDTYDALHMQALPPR"}, "[2]": {"biological_target": "ACTR variant SEQ ID NO: 59", "sequence (chain, as listed by the source mutant limits assumed)": "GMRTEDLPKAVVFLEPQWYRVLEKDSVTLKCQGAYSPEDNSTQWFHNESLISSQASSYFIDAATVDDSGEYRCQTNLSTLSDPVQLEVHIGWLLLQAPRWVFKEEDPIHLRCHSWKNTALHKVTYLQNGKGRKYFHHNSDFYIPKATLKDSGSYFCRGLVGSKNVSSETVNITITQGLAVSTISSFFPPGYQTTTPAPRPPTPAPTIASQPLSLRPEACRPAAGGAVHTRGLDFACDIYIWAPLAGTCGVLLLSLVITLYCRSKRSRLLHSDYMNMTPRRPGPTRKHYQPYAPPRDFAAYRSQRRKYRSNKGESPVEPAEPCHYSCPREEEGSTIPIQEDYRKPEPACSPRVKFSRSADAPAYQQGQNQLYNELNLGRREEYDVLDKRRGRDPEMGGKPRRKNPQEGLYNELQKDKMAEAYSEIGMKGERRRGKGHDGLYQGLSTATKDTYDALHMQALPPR"}, "[3]": {"biological_target": "ACTR variant SEQ ID NO: 7", "sequence (chain, as listed by the source mutant limits assumed)": "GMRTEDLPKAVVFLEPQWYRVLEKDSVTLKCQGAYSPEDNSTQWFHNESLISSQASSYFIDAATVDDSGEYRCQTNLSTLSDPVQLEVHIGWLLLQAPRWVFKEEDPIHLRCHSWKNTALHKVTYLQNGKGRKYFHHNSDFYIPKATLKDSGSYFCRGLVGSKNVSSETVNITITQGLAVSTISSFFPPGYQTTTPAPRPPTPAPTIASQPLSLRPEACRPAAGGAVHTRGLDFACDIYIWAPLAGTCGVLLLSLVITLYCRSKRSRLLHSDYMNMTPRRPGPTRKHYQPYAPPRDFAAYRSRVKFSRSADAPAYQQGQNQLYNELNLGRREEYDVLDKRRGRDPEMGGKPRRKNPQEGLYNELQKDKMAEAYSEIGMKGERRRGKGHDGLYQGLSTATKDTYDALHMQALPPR"}, "[4]": {"biological_target": "ACTR variant SEQ ID NO: 62", "sequence (chain, as listed by the source mutant limits assumed)": "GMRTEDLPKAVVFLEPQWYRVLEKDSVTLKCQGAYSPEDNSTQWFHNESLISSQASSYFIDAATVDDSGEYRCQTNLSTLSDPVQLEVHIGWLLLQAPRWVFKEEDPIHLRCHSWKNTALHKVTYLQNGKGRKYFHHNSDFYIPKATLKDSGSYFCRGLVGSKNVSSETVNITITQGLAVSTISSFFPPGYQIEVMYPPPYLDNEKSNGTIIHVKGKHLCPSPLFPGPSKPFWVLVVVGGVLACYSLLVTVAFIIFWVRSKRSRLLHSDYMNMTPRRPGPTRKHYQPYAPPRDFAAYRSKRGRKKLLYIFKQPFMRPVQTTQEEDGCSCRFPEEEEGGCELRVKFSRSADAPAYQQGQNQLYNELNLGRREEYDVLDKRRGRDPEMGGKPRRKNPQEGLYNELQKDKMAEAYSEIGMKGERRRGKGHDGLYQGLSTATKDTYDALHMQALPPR"}, "[5]": {"biological_target": "ACTR variant SEQ ID NO: 58", "sequence (chain, as listed by the source mutant)": "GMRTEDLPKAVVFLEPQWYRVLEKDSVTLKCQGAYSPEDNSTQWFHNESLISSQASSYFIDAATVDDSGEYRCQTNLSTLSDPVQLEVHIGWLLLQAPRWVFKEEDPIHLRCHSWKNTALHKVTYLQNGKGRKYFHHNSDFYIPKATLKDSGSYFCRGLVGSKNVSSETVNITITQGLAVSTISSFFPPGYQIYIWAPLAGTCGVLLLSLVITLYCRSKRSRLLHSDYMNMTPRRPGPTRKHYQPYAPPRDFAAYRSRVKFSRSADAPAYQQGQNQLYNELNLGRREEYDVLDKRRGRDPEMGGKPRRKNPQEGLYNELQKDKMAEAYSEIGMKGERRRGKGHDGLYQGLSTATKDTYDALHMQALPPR"}, "[6]": {"biological_target": "ACTR variant SEQ ID NO: 63", "sequence (chain, as listed by the source mutant limits assumed)": "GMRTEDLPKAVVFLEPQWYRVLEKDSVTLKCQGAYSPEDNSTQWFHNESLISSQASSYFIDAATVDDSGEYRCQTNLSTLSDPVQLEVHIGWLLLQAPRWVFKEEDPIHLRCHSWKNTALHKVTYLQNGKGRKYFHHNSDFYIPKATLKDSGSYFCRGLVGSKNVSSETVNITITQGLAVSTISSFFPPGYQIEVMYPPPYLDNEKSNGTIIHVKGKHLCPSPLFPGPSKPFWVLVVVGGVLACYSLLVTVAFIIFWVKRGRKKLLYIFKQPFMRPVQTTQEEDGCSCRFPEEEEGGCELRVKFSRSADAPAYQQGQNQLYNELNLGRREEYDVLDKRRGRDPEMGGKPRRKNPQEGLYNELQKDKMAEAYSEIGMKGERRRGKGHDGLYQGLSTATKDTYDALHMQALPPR"}, "[7]": {"biological_target": "ACTR variant SEQ ID NO: 10", "sequence (chain, as listed by the source mutant limits assumed)": "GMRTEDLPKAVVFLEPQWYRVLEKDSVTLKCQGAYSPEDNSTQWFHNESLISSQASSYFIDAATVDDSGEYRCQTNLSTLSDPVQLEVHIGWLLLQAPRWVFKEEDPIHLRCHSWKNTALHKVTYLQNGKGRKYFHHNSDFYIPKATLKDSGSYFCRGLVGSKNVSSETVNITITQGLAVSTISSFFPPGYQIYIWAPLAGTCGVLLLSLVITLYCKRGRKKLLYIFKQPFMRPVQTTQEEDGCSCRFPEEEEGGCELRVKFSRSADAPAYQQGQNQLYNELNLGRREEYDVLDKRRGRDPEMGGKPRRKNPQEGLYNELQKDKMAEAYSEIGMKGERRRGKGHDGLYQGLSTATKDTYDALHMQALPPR"}, "[8]": {"biological_target": "ACTR variant SEQ ID NO: 61", "sequence (chain, as listed by the source mutant limits assumed)": "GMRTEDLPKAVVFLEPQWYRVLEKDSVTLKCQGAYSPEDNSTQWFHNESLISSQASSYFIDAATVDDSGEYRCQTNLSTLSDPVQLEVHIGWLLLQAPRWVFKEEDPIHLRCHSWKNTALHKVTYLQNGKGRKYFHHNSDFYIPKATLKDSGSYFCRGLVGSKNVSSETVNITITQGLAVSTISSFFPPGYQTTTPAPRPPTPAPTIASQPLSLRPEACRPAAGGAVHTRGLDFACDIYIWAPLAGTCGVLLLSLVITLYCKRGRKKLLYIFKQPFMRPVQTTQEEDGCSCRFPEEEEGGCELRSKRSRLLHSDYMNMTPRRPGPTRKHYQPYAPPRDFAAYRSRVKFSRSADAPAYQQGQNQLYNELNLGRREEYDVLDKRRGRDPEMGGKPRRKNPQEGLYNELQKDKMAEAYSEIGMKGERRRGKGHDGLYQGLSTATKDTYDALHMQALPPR"}, "[9]": {"biological_target": "ACTR variant SEQ ID NO: 57", "sequence (chain, as listed by the source mutant)": "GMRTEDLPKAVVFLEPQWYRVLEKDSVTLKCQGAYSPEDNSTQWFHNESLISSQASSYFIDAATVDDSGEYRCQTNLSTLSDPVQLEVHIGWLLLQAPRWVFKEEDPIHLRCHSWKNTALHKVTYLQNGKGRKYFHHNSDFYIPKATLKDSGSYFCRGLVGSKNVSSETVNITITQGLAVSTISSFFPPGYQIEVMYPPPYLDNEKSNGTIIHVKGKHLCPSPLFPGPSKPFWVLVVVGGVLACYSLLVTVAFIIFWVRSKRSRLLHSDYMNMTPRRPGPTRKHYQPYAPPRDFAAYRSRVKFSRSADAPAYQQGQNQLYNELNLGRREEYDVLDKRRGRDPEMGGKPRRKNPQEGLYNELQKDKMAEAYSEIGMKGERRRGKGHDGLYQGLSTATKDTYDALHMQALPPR"}}, "data": [{"binder": "B1", "values": [{"measurement": "IFNγ Release (pg/mL), ACTR T cells + NCI-H929 Target Cells + hSG16.17SEA (1 µg/mL)", "setting": "[1]", "result": 18600, "unit": "pg/mL"}, {"measurement": "IFNγ Release (pg/mL), ACTR T cells + U266B1 Target Cells + hSG16.17SEA (1 µg/mL)", "setting": "[1]", "result": 14400, "unit": "pg/mL"}, {"measurement": "IL-2 Release (pg/mL), ACTR T cells + NCI-H929 Target Cells + hSG16.17SEA (1 µg/mL)", "setting": "[1]", "result": 258, "unit": "pg/mL"}, {"measurement": "IL-2 Release (pg/mL), ACTR T cells + U266B1 Target Cells + hSG16.17SEA (1 µg/mL)", "setting": "[1]", "result": 48.6, "unit": "pg/mL"}, {"measurement": "T-cell proliferation: fold increase in CD3+ cells at 1 µg/mL hSG16.17SEA relative to no antibody, NCI-H929 Target Cells", "setting": "[1]", "result": 18.3, "unit": "fold"}, {"measurement": "T-cell proliferation: fold increase in CD3+ cells at 1 µg/mL hSG16.17SEA relative to no antibody, U266B1 Target Cells", "setting": "[1]", "result": 11.7, "unit": "fold"}, {"measurement": "IFNγ Release (pg/mL), ACTR T cells + NCI-H929 Target Cells + hSG16.17SEA (1 µg/mL)", "setting": "[2]", "result": 17100, "unit": "pg/mL"}, {"measurement": "IFNγ Release (pg/mL), ACTR T cells + U266B1 Target Cells + hSG16.17SEA (1 µg/mL)", "setting": "[2]", "result": 12600, "unit": "pg/mL"}, {"measurement": "IL-2 Release (pg/mL), ACTR T cells + NCI-H929 Target Cells + hSG16.17SEA (1 µg/mL)", "setting": "[2]", "result": 46.6, "unit": "pg/mL"}, {"measurement": "IL-2 Release (pg/mL), ACTR T cells + U266B1 Target Cells + hSG16.17SEA (1 µg/mL)", "setting": "[2]", "result": 214, "unit": "pg/mL"}, {"measurement": "T-cell proliferation: fold increase in CD3+ cells at 1 µg/mL hSG16.17SEA relative to no antibody, NCI-H929 Target Cells", "setting": "[2]", "result": 11.5, "unit": "fold"}, {"measurement": "T-cell proliferation: fold increase in CD3+ cells at 1 µg/mL hSG16.17SEA relative to no antibody, U266B1 Target Cells", "setting": "[2]", "result": 6.91, "unit": "fold"}, {"measurement": "IFNγ Release (pg/mL), ACTR T cells + NCI-H929 Target Cells + hSG16.17SEA (1 µg/mL)", "setting": "[3]", "result": 6250, "unit": "pg/mL"}, {"measurement": "IFNγ Release (pg/mL), ACTR T cells + U266B1 Target Cells + hSG16.17SEA (1 µg/mL)", "setting": "[3]", "result": 13700, "unit": "pg/mL"}, {"measurement": "IL-2 Release (pg/mL), ACTR T cells + NCI-H929 Target Cells + hSG16.17SEA (1 µg/mL)", "setting": "[3]", "result": 262, "unit": "pg/mL"}, {"measurement": "IL-2 Release (pg/mL), ACTR T cells + U266B1 Target Cells + hSG16.17SEA (1 µg/mL)", "setting": "[3]", "result": 34.8, "unit": "pg/mL"}, {"measurement": "T-cell proliferation: fold increase in CD3+ cells at 1 µg/mL hSG16.17SEA relative to no antibody, NCI-H929 Target Cells", "setting": "[3]", "result": 80.1, "unit": "fold"}, {"measurement": "T-cell proliferation: fold increase in CD3+ cells at 1 µg/mL hSG16.17SEA relative to no antibody, U266B1 Target Cells", "setting": "[3]", "result": 52, "unit": "fold"}, {"measurement": "IFNγ Release (pg/mL), ACTR T cells + NCI-H929 Target Cells + hSG16.17SEA (1 µg/mL)", "setting": "[4]", "result": 14500, "unit": "pg/mL"}, {"measurement": "IFNγ Release (pg/mL), ACTR T cells + U266B1 Target Cells + hSG16.17SEA (1 µg/mL)", "setting": "[4]", "result": 7580, "unit": "pg/mL"}, {"measurement": "IL-2 Release (pg/mL), ACTR T cells + NCI-H929 Target Cells + hSG16.17SEA (1 µg/mL)", "setting": "[4]", "result": 119, "unit": "pg/mL"}, {"measurement": "IL-2 Release (pg/mL), ACTR T cells + U266B1 Target Cells + hSG16.17SEA (1 µg/mL)", "setting": "[4]", "result": 12.3, "unit": "pg/mL"}, {"measurement": "T-cell proliferation: fold increase in CD3+ cells at 1 µg/mL hSG16.17SEA relative to no antibody, NCI-H929 Target Cells", "setting": "[4]", "result": 6.24, "unit": "fold"}, {"measurement": "T-cell proliferation: fold increase in CD3+ cells at 1 µg/mL hSG16.17SEA relative to no antibody, U266B1 Target Cells", "setting": "[4]", "result": 2.87, "unit": "fold"}, {"measurement": "IFNγ Release (pg/mL), ACTR T cells + NCI-H929 Target Cells + hSG16.17SEA (1 µg/mL)", "setting": "[5]", "result": 16800, "unit": "pg/mL"}, {"measurement": "IFNγ Release (pg/mL), ACTR T cells + U266B1 Target Cells + hSG16.17SEA (1 µg/mL)", "setting": "[5]", "result": 12700, "unit": "pg/mL"}, {"measurement": "IL-2 Release (pg/mL), ACTR T cells + NCI-H929 Target Cells + hSG16.17SEA (1 µg/mL)", "setting": "[5]", "result": 420, "unit": "pg/mL"}, {"measurement": "IL-2 Release (pg/mL), ACTR T cells + U266B1 Target Cells + hSG16.17SEA (1 µg/mL)", "setting": "[5]", "result": 17.8, "unit": "pg/mL"}, {"measurement": "T-cell proliferation: fold increase in CD3+ cells at 1 µg/mL hSG16.17SEA relative to no antibody, NCI-H929 Target Cells", "setting": "[5]", "result": 9.76, "unit": "fold"}, {"measurement": "T-cell proliferation: fold increase in CD3+ cells at 1 µg/mL hSG16.17SEA relative to no antibody, U266B1 Target Cells", "setting": "[5]", "result": 4.75, "unit": "fold"}, {"measurement": "IFNγ Release (pg/mL), ACTR T cells + NCI-H929 Target Cells + hSG16.17SEA (1 µg/mL)", "setting": "[6]", "result": 16000, "unit": "pg/mL"}, {"measurement": "IFNγ Release (pg/mL), ACTR T cells + U266B1 Target Cells + hSG16.17SEA (1 µg/mL)", "setting": "[6]", "result": 10400, "unit": "pg/mL"}, {"measurement": "IL-2 Release (pg/mL), ACTR T cells + NCI-H929 Target Cells + hSG16.17SEA (1 µg/mL)", "setting": "[6]", "result": 66.5, "unit": "pg/mL"}, {"measurement": "IL-2 Release (pg/mL), ACTR T cells + U266B1 Target Cells + hSG16.17SEA (1 µg/mL)", "setting": "[6]", "result": 1.6, "unit": "pg/mL"}, {"measurement": "T-cell proliferation: fold increase in CD3+ cells at 1 µg/mL hSG16.17SEA relative to no antibody, NCI-H929 Target Cells", "setting": "[6]", "result": 3.76, "unit": "fold"}, {"measurement": "T-cell proliferation: fold increase in CD3+ cells at 1 µg/mL hSG16.17SEA relative to no antibody, U266B1 Target Cells", "setting": "[6]", "result": 2.82, "unit": "fold"}, {"measurement": "IFNγ Release (pg/mL), ACTR T cells + NCI-H929 Target Cells + hSG16.17SEA (1 µg/mL)", "setting": "[7]", "result": 19800, "unit": "pg/mL"}, {"measurement": "IFNγ Release (pg/mL), ACTR T cells + U266B1 Target Cells + hSG16.17SEA (1 µg/mL)", "setting": "[7]", "result": 7970, "unit": "pg/mL"}, {"measurement": "IL-2 Release (pg/mL), ACTR T cells + NCI-H929 Target Cells + hSG16.17SEA (1 µg/mL)", "setting": "[7]", "result": 224, "unit": "pg/mL"}, {"measurement": "IL-2 Release (pg/mL), ACTR T cells + U266B1 Target Cells + hSG16.17SEA (1 µg/mL)", "setting": "[7]", "result": 260, "unit": "pg/mL"}, {"measurement": "T-cell proliferation: fold increase in CD3+ cells at 1 µg/mL hSG16.17SEA relative to no antibody, NCI-H929 Target Cells", "setting": "[7]", "result": 7.46, "unit": "fold"}, {"measurement": "T-cell proliferation: fold increase in CD3+ cells at 1 µg/mL hSG16.17SEA relative to no antibody, U266B1 Target Cells", "setting": "[7]", "result": 1.62, "unit": "fold"}, {"measurement": "IFNγ Release (pg/mL), ACTR T cells + NCI-H929 Target Cells + hSG16.17SEA (1 µg/mL)", "setting": "[8]", "result": 22900, "unit": "pg/mL"}, {"measurement": "IFNγ Release (pg/mL), ACTR T cells + U266B1 Target Cells + hSG16.17SEA (1 µg/mL)", "setting": "[8]", "result": 11600, "unit": "pg/mL"}, {"measurement": "IL-2 Release (pg/mL), ACTR T cells + NCI-H929 Target Cells + hSG16.17SEA (1 µg/mL)", "setting": "[8]", "result": 178, "unit": "pg/mL"}, {"measurement": "IL-2 Release (pg/mL), ACTR T cells + U266B1 Target Cells + hSG16.17SEA (1 µg/mL)", "setting": "[8]", "result": 132, "unit": "pg/mL"}, {"measurement": "T-cell proliferation: fold increase in CD3+ cells at 1 µg/mL hSG16.17SEA relative to no antibody, NCI-H929 Target Cells", "setting": "[8]", "result": 15.8, "unit": "fold"}, {"measurement": "T-cell proliferation: fold increase in CD3+ cells at 1 µg/mL hSG16.17SEA relative to no antibody, U266B1 Target Cells", "setting": "[8]", "result": 8.72, "unit": "fold"}, {"measurement": "IFNγ Release (pg/mL), ACTR T cells + NCI-H929 Target Cells + hSG16.17SEA (1 µg/mL)", "setting": "[9]", "result": 16700, "unit": "pg/mL"}, {"measurement": "IFNγ Release (pg/mL), ACTR T cells + U266B1 Target Cells + hSG16.17SEA (1 µg/mL)", "setting": "[9]", "result": 12600, "unit": "pg/mL"}, {"measurement": "IL-2 Release (pg/mL), ACTR T cells + NCI-H929 Target Cells + hSG16.17SEA (1 µg/mL)", "setting": "[9]", "result": 373, "unit": "pg/mL"}, {"measurement": "IL-2 Release (pg/mL), ACTR T cells + U266B1 Target Cells + hSG16.17SEA (1 µg/mL)", "setting": "[9]", "result": 187, "unit": "pg/mL"}, {"measurement": "T-cell proliferation: fold increase in CD3+ cells at 1 µg/mL hSG16.17SEA relative to no antibody, NCI-H929 Target Cells", "setting": "[9]", "result": 35.5, "unit": "fold"}, {"measurement": "T-cell proliferation: fold increase in CD3+ cells at 1 µg/mL hSG16.17SEA relative to no antibody, U266B1 Target Cells", "setting": "[9]", "result": 49.5, "unit": "fold"}]}]}
